From US20210206875A1, “ERBB-2 TARGETING AGENT AND A BISPECIFIC ANTIBODY WITH ANTIGEN-BINDING SITES THAT BIND AN EPITOPE ON AN EXTRACELLULAR PART OF ERB-2 AND ERBB-3, FOR TREATMENT OF AN INDIVIDUAL WITH AN ERBB-2, ERBB-2/ERBB-3 POSITIVE TUMOUR” (Merus N.V., priority 2017, published 2021)

Tests used:
[1] = tested on: MCF-7 cells; experiment: HRG dependent MCF-7 proliferation assay; format: cell-based, human; details: HRG dependent MCF-7 assay
Procedure: (§1) SK-BR-3 cells were cultured in DMEM-F/12 supplemented with L-glutamine and 10% heat inactivated FBS. BxPC-3-luc2 cells were cultured in RPMI1640 supplemented with 10% heat inactivated FBS. MCF-7 cells were cultured in RPMI1640 supplemented with 100 μM, NEAA1 mM sodium pyruvate, 4 μg/ml insulin and 10% heat inactivated FBS.
For the proliferation assay of MCF-7 and BxPC-3-luc2 cells, subconfluent cell cultures were washed with PBS, trypsinized and trypsin was inactivated by adding culture medium. Cells were washed twice in large volumes of assay medium (RPMI 1640 medium containing 0.05% BSA and 10 μg/ml Holo Transferrin). MCF-7 cells were diluted to 5×10^4 cells/ml in culture medium. Antibodies were diluted to concentrations of 10 and 1 μg/ml and added in a volume of 100 μl in 96-well black bottom plates (ABgene AB-0932). Cells were added at a density of 5000 cells/well in the presence of 1 ng/ml final concentration human Recombinant Human NRG1-beta 1/HRG1-beta 1 EGF Domain; (396-HB-050 RND). Human NRG1-beta 1/HRG1-beta 1 EGF Domain will hereinafter be referred to as HRG. […] Fluorescence was measured at 550 nm excitation with 590 nm emission wave length.
The IC50 for the bispecific antibodies, monoclonals and comparator antibodies was calculated using non-linear regression analysis with Prism software.

[2] = tested on: BxPC-3-luc2 cells; experiment: HRG dependent BxPC-3-luc2 proliferation assay; format: cell-based, human
Procedure: as §1
Antibodies were diluted to concentrations of 10 and 1 μg/ml and added in a volume of 100 μl in 96-well black bottom plates (ABgene AB-0932). […] Fluorescence was measured at 550 nm excitation with 590 nm emission wave length.

IC50 [1]: 0.504 nM
B1: #Ab6: anti-HER3 antibody of Merrimack Pharmaceuticals, recloned in IgG1 backbone (antibody, chains of the INN, looked up, V domains shown)
VH: EVQLLESGGGLVQPGGSLRLSCAASGFTFSHYVMAWVRQAPGKGLEWVSSISSSGGWTLYADSVKGRFTISRDNSKNTLYLQMNSLRAEDTAVYYCTRGLKMATIFDYWGQGTLVTVSS
VL: QSALTQPASVSGSPGQSITISCTGTSSDVGSYNVVSWYQQHPGKAPKLIIYEVSQRPSGVSNRFSGSKSGNTASLTISGLQTEDEADYYCCSYAGSSIFVIFGGGTKVTVL
modifications: IgG1
notes: anti-HER3 antibody of Merrimack Pharmaceuticals, recloned in IgG1 backbone
BxPC3 % Inhibition [2]: −7%
